In PMC5434536, “ING3 promotes prostate cancer growth by activating the androgen receptor” (BMC Medicine, 2017):

Target: T1, HA-tagged TIP60 (pCIN4-FLAG-HA-TIP60) (UniProt Q92993 1-513)
T1 construct: TIP60 from the plasmid pCIN4-FLAG-HA-TIP60 (gift from Dr. Wei Gu)
Test: co-IP; cells co-transfected with AR, TIP60 and increasing amounts of ING3 plasmid + 10 nM MB for 24 h; AR or TIP60 immunoprecipitated with anti-AR or HA-affinity beads
Details: partners not purified

T1 sequence (Q92993 whole entry): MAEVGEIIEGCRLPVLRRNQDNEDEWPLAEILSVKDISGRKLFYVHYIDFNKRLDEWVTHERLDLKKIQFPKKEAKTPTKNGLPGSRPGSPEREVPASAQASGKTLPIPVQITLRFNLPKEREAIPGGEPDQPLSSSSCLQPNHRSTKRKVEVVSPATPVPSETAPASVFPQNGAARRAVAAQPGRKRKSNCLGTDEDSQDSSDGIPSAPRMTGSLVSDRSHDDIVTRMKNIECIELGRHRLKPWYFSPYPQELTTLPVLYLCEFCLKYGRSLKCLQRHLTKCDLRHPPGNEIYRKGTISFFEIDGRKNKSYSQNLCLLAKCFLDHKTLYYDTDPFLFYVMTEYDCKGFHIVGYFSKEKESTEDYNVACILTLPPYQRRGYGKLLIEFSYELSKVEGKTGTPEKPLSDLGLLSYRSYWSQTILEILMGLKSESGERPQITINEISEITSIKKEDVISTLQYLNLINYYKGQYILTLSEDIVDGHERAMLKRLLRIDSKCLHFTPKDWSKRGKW

B1: Myc-tagged androgen receptor (pCMV-3myc-AR) (receptor, UniProt P10275 1-920, looked up)
chain: MEVQLGLGRVYPRPPSKTYRGAFQNLFQSVREVIQNPGPRHPEAASAAPPGASLLLLQQQQQQQQQQQQQQQQQQQQQQQETSPRQQQQQQGEDGSPQAHRRGPTGYLVLDEEQQPSQPQSALECHPERGCVPEPGAAVAASKGLPQQLPAPPDEDDSAAPSTLSLLGPTFPGLSSCSADLKDILSEASTMQLLQQQQQEAVSEGSSSGRAREASGAPTSSKDNYLGGTSTISDNAKELCKAVSVSMGLGVEALEHLSPGEQLRGDCMYAPLLGVPPAVRPTPCAPLAECKGSLLDDSAGKSTEDTAEYSPFKGGYTKGLEGESLGCSGSAAAGSSGTLELPSTLSLYKSGALDEAAAYQSRDYYNFPLALAGPPPPPPPPHPHARIKLENPLDYGSAWAAAAAQCRYGDLASLHGAGAAGPGSGSPSAAASSSWHTLFTAEEGQLYGPCGGGGGGGGGGGGGGGGGGGGGGGEAGAVAPYGYTRPPQGLAGQESDFTAPDVWYPGGMVSRVPYPSPTCVKSEMGPWMDSYSGPYGDMRLETARDHVLPIDYYFPPQKTCLICGDEASGCHYGALTCGSCKVFFKRAAEGKQKYLCASRNDCTIDKFRRKNCPSCRLRKCYEAGMTLGARKLKKLGNLKLQEEGEASSTTSPTEETTQKLTVSHIEGYECQPIFLNVLEAIEPGVVCAGHDNNQPDSFAALLSSLNELGERQLVHVVKWAKALPGFRNLHVDDQMAVIQYSWMGLMVFAMGWRSFTNVNSRMLYFAPDLVFNEYRMHKSRMYSQCVRMRHLSQEFGWLQITPQEFLCMKALLLFSIIPVDGLKNQKFFDELRMNYIKELDRIIACKRKNPTSCSRRFYQLTKLLDSVQPIARELHQFTFDLLIKSHMVSVDFPEMMAEIISVQVPKILSGKVKPIYFHTQ
notes: androgen receptor from the plasmid pCMV-3myc-AR (gift from Dr. Marja Nevalainen); pCMV-3myc-AR is the only full-length AR plasmid named; also called AR-Myc; Myc-tagged AR; source: HEK293T, transfected, in lysate
B1 was tested, and the “fold increase of the AR-TIP60 association (ratio AR:HA-TIP60) with co-transfected ING3 against without” value was ~8 fold.
